In IntAct's records for PubMed 29039417:

B1: BBSome complex member BBS4 (Homo sapiens), Q96RK4 (parent)
chain: MAEERVATRTQFPVSTESQKPRQKKAPEFPILEKQNWLIHLHYIRKDYEACKAVIKEQLQETQGLCEYAIYVQALIFRLEGNIQESLELFQTCAVLSPQSADNLKQVARSLFLLGKHKAAIEVYNEAAKLNQKDWEISHNLGVCYIYLKQFNKAQDQLHNALNLNRHDLTYIMLGKIHLLEGDLDKAIEVYKKAVEFSPENTELLTTLGLLYLQLGIYQKAFEHLGNALTYDPTNYKAILAAGSMMQTHGDFDVALTKYRVVACAVPESPPLWNNIGMCFFGKKKYVAAISCLKRANYLAPFDWKILYNLGLVHLTMQQYASAFHFLSAAINFQPKMGELYMLLAVALTNLEDIENAKRAYAEAVHLDKCNPLVNLNYAVLLYNQGEKKNALAQYQEMEKKVSLLKDNSSLEFDSEMVEMAQKLGAALQVGEALVWTKPVKDPKSKHQTTSTSKPASFQQPLGSNQALGQAMSSAAAYRTLPSGAGGTSQFTKPPSLPLEPEPAVESSPTETSEQIREK
partner: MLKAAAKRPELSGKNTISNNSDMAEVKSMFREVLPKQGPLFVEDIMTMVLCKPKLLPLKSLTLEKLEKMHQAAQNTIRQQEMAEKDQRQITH

Variants of: B1
Conditions: with bbip1_human BBIP1, A8MTZ0

Effect of a mutation on the interaction, with no effect:
MAEERVATRTQFPVSTESQKPRQKKAPEFPILEKQNWLIHLHYIRKDYEACKAVIKEQLQETQGLCEYAIYVQALIFRLEGNIQESLELFQTCAVLSPQSADNLKQVARSLFLLGKHKAAIEVYNEAAKLNQKDWEISHNLGVCYIYLKQFNKAQDQLHNALNLNRHDLTYIMLGKIHLLEGDLDKAIEVYKKAVEFSPENTELLTTLGLLYLQLGIYQKAFEHLGNALTYDPTNYKAILAAGSMMQTHGDFDVALTKYRVVACAVPESPPLWNNIGMCFFGKKKYVAAISCLKRANYLAPFDWKILYNLGLVHLTMQQYASAFHFLSAAINFQPKMGELYMLLAVALTNLEDIENAKRAYAEAVHLDKCNPLVNLNYAVLLYNQGEKKNALAQYQEMEKKVSLLKDNSSLEFDSEMVEMAQKLGAALQVGEALVWTKPKKDPKSKHQTTSTSKPASFQQPLGSNQALGQAMSSAAAYRTLPSGAGGTSQFTKPPSLPLEPEPAVESSPTETSEQIREK [V440K]
MAEERVATRTQFPVSTESQKPRQKKAPEFPILEKQNWLIHLHYIRKDYEACKAVIKEQLQETQGLCEYAIYVQALIFRLEGNIQESLELFQTCAVLSPQSADNLKQVARSLFLLGKHKAAIEVYNEAAKLNQKDWEISHNLGVCYIYLKQFNKAQDQLHNALNLNRHDLTYIMLGKIHLLEGDLDKAIEVYKKAVEFSPENTELLTTLGLLYLQLGIYQKAFEHLGNALTYDPTNYKAILAAGSMMQTHGDFDVALTKYRVVACAVPESPPLWNNIGMCFFGKKKYVAAISCLKRANYLAPFDWKILYNLGLVHLTMQQYASAFHFLSAAINFQPKMGELYMLLAVALTNLEDIENAKRAYAEAVHLDKCNPLVNLNYAVLLYNQGEKKNALAQYQEMEKKVSLLKDNSSLEFDSEMVEMAQKLGAALQVGEALVWTKPEKDPKSKHQTTSTSKPASFQQPLGSNQALGQAMSSAAAYRTLPSGAGGTSQFTKPPSLPLEPEPAVESSPTETSEQIREK [V440E]
MAEERVATRTQFPVSTESQKPRQKKAPEFPILEKQNWLIHLHYIRKDYEACKAVIKEQLQETQGLCEYAIYVQALIFRLEGNIQESLELFQTCAVLSPQSADNLKQVARSLFLLGKHKAAIEVYNEAAKLNQKDWEISHNLGVCYIYLKQFNKAQDQLHNALNLNRHDLTYIMLGKIHLLEGDLDKAIEVYKKAVEFSPENTELLTTLGLLYLQLGIYQKAFEHLGNALTYDPTNYKAILAAGSMMQTHGDFDVALTKYRVVACAVPESPPLWNNIGMCFFGKKKYVAAISCLKRANYLAPFDWKILYNLGLVHLTMQQYASAFHFLSAAINFQPKMGELYMLLAVALTNLEDIENAKRAYAEAVHLDKCNPLVNLNYAVLLYNQGEKKNALAQYQEMEKKVSLLKDNSSLEFDSEMVEMAQKLGAALQVGEALVWTKPVKAPKSKHQTTSTSKPASFQQPLGSNQALGQAMSSAAAYRTLPSGAGGTSQFTKPPSLPLEPEPAVESSPTETSEQIREK [D442A]
MAEERVATRTQFPVSTESQKPRQKKAPEFPILEKQNWLIHLHYIRKDYEACKAVIKEQLQETQGLCEYAIYVQALIFRLEGNIQESLELFQTCAVLSPQSADNLKQVARSLFLLGKHKAAIEVYNEAAKLNQKDWEISHNLGVCYIYLKQFNKAQDQLHNALNLNRHDLTYIMLGKIHLLEGDLDKAIEVYKKAVEFSPENTELLTTLGLLYLQLGIYQKAFEHLGNALTYDPTNYKAILAAGSMMQTHGDFDVALTKYRVVACAVPESPPLWNNIGMCFFGKKKYVAAISCLKRANYLAPFDWKILYNLGLVHLTMQQYASAFHFLSAAINFQPKMGELYMLLAVALTNLEDIENAKRAYAEAVHLDKCNPLVNLNYAVLLYNQGEKKNALAQYQEMEKKVSLLKDNSSLEFDSEMVEMAQKLGAALQVGEALVWTKPVKEPKSKHQTTSTSKPASFQQPLGSNQALGQAMSSAAAYRTLPSGAGGTSQFTKPPSLPLEPEPAVESSPTETSEQIREK [D442E]
MAEERVATRTQFPVSTESQKPRQKKAPEFPILEKQNWLIHLHYIRKDYEACKAVIKEQLQETQGLCEYAIYVQALIFRLEGNIQESLELFQTCAVLSPQSADNLKQVARSLFLLGKHKAAIEVYNEAAKLNQKDWEISHNLGVCYIYLKQFNKAQDQLHNALNLNRHDLTYIMLGKIHLLEGDLDKAIEVYKKAVEFSPENTELLTTLGLLYLQLGIYQKAFEHLGNALTYDPTNYKAILAAGSMMQTHGDFDVALTKYRVVACAVPESPPLWNNIGMCFFGKKKYVAAISCLKRANYLAPFDWKILYNLGLVHLTMQQYASAFHFLSAAINFQPKMGELYMLLAVALTNLEDIENAKRAYAEAVHLDKCNPLVNLNYAVLLYNQGEKKNALAQYQEMEKKVSLLKDNSSLEFDSEMVEMAQKLGAALQVGEALVWTKPVADPKSKHQTTSTSKPASFQQPLGSNQALGQAMSSAAAYRTLPSGAGGTSQFTKPPSLPLEPEPAVESSPTETSEQIREK [K441A]
MAEERVATRTQFPVSTESQKPRQKKAPEFPILEKQNWLIHLHYIRKDYEACKAVIKEQLQETQGLCEYAIYVQALIFRLEGNIQESLELFQTCAVLSPQSADNLKQVARSLFLLGKHKAAIEVYNEAAKLNQKDWEISHNLGVCYIYLKQFNKAQDQLHNALNLNRHDLTYIMLGKIHLLEGDLDKAIEVYKKAVEFSPENTELLTTLGLLYLQLGIYQKAFEHLGNALTYDPTNYKAILAAGSMMQTHGDFDVALTKYRVVACAVPESPPLWNNIGMCFFGKKKYVAAISCLKRANYLAPFDWKILYNLGLVHLTMQQYASAFHFLSAAINFQPKMGELYMLLAVALTNLEDIENAKRAYAEAVHLDKCNPLVNLNYAVLLYNQGEKKNALAQYQEMEKKVSLLKDNSSLEFDSEMVEMAQKLGAALQVGEALVWTKPVEDPKSKHQTTSTSKPASFQQPLGSNQALGQAMSSAAAYRTLPSGAGGTSQFTKPPSLPLEPEPAVESSPTETSEQIREK [K441E]
